From patent publication US20230059489A1 (Pfizer, published 2023)

T1: human FLT3 (hFLT3) (human, UniProt P36888 27-543)
T1 construct: also called huFlt3; Fms-Like Tyrosine Kinase 3
T1 sequence (looked up): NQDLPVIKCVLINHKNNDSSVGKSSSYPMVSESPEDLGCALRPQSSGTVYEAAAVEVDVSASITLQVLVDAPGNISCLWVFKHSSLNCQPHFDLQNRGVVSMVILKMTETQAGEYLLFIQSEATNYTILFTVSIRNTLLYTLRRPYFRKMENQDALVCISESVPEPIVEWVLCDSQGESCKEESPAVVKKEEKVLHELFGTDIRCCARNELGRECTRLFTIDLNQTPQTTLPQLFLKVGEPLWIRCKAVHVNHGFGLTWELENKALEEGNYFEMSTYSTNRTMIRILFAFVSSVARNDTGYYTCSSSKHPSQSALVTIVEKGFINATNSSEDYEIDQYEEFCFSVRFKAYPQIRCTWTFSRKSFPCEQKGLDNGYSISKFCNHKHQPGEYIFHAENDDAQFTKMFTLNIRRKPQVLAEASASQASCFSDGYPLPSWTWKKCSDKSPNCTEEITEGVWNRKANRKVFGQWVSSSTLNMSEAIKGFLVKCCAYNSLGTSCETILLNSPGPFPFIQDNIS


Target: T1, human FLT3 (hFLT3)
Assay: SPR (Biacore T200), 37 C; IgG captured on anti-human Fc, hFLT3 as analyte
Protocol: All experiments were performed on a Biacore T200 surface Plasmon resonance biosensor (GE Lifesciences, Piscataway N.J.).
The sensor chip preparation was performed at 25° C. with a running buffer of 10 mM HEPES, 150 mM NaCl, 0.05% (v/v) Tween-20, pH 7.4. An anti-human Fc sensor chip was made by activating all flow cells of a Biacore CM4 sensor chip with a 1:1 (v/v) mixture of 400 mM EDC and 100 mM NHS for 7 minutes, at a flow rate of 10 μL/min. An anti-human Fc reagent (Goat Anti-Human IgG Fc, Southern Biotech Catalog #2081-01) was diluted to 30 μg/mL in 10 mM Sodium Acetate pH 4.5 and injected on all flow cells for 7 minutes at 20 μL/min. All flow cells were blocked with 100 mM ethylenediamine in 150 mM Borate buffer pH 8.5 for 7 minutes at 10 μL/min.
The experiments were performed at 37° C. using a running buffer of 10 mM HEPES, 150 mM NaCl, 0.05% (v/v) Tween-20, pH 7.4, 1 mg/mL BSA. FLT3 antibodies were captured from undiluted supernatants onto downstream flow cells (flow cells 2, 3 and 4) at a flow rate of 10 μL/min for 1 minute. Different antibodies were captured on each flow cell. Flow cell 1 was used as a reference surface. Following capture of FLT3 antibodies, analyte (buffer, hFLT3) was injected at 30 μL/min on all flow cells for two minutes. After the analyte injection, dissociation was monitored for 10 minutes followed by regeneration of all flow cells with three 1-minute injections of 75 mM Phosphoric Acid. For each captured FLT3 antibody, the following analyte injections were performed: buffer, 11 nM hFLT3, 33 nM hFLT3, 100 nM hFLT3 and 300 nM hFLT3. Buffer cycles were collected for each captured FLT3 antibody for double-referencing purposes (double-referencing as described in Myszka, D. G. Improving biosensor analysis. J. Mol. Recognit. 12, 279-284 (1999)). The double-referenced sensorgrams were fit globally to a simple 1:1 Langmuir with mass transport binding model.

Kd [nM]	koff [s⁻¹]	kon [M⁻¹ s⁻¹]	t1/2 [min]	Binder
84	0.009	110000	1.3	P12B6 (IgG format) (antibody, V domains shown, IgG format, captured by anti-human Fc) VH: QVQLVQSGAEVKKPGSSVKVSCKASGGTFMSYAISWVRQAPGQGLEWMGGIIPIFGIANYAQKFQGRVTITADKSTSTAYMELSSLRSEDTAVYYCARETLIYPIPFELWGQGTLVTVSS VL: EIVLTQSPGTLSLSPGERATLSCRASQIVSSSYLAWYQQKPGQAPRLLIYGASSRASGIPDRFSGSGSGTDFTLTISRLEPEDFAVYYCQQYGGSPYTFGQGTKVEIK
45	0.0055	120000	2.1	P1B11 (IgG format) (antibody, V domains shown, IgG format, captured by anti-human Fc) VH: QVQLVQSGAEVKKPGSSVKVSCKASGGTFRSFDISWVRQAPGQGLEWMGRIIPILGYANYAQKFQGRVTITADESTSTAYMELSSLRSEDTAVYYCASDLGAPWAGYPFDPWGQGTLVTVSS VL: EIVLTQSPGTLSLSPGERATLSCRASQSVSSSELAWYQQKPGQAPRLLIYDASSRATGIPDRFSGSGSGTDFTLTISRLEPEDFAVYYCQQYDSSPLTFGQGTKVEIK
32	0.0058	180000	2	P1B4 (IgG format) (antibody, V domains shown, IgG format, captured by anti-human Fc) VH: QVQLVQSGAEVKKPGSSVKVSCKASGGVFSRYALSWVRQAPGQGLEWMGGIIPMLGFANYAQKFQGRVTITADESTSTAYMELSSLRSEDTAVYYCATLDFGALDYWGQGTLVTVSS VL: EIVLTQSPGTLSLSPGERATLSCRASQSVPNEQLAWYQQKPGQAPRLLIYDASSRATGIPDRFSGSGSGTDFTLTISRLEPEDFAVYYCQQYGSPPLTFGQGTKVEIK
2.5	0.00023	93000	51	P8B6 (IgG format) (antibody, V domains shown, IgG format, captured by anti-human Fc) VH: QVQLVQSGAEVKKPGSSVKVSCKASGGTFSSYAVSWVRQAPGQGLEWMGGIIPIFGIANYAQKFQGRVTITADTSTSTAYMELSSLRSEDTAVYYCAIEGIGGDLRYDGYDAWGQGTLVTVSS VL: EIVLTQSPGTLSLSPGERATLSCRASQSVSHSYLAWYQQKPGQAPRLLIYGASFRAAGIPDRFSGSGSGTDFTLTISRLEPEDFAVYYCQQYGSDPYTFGQGTKVEIK
106	0.019	180000	0.6	P3E10 (IgG format) (antibody, V domains shown, IgG format, captured by anti-human Fc) VH: QVQLVQSGAEVKKPGSSVKVSCKASGGTFSSYAIQWVRQAPGQGLEWMGGIVGSWGLANYAQKFQGRVTITTDKSTSTAYMELSSLRSEDTAVYYCATSAFGELASWGQGTLVTVSS VL: EIVLTQSPGTLSLSPGERATLSCRASQSVPSSQLAWYQQKPGQAPRLLIYDASSRATGIPDRFSGSGSGTDFTLTISRLEPEDFAVYYCQQYGSSPLTFGQGTKVEIK
0.19	0.000347	1.78e+06	33	P1A5 (IgG format) (antibody, V domains shown, IgG format, captured by anti-human Fc; the entry printed as P1A5 is used) VH: QVQLVQSGAEVKKPGSSVKVSCKASGGVFSRYALSWVRQAPGQGLEWMGGIIPMLGFANYAQKFQGRVTITADESTSTAYMELSSLRSEDTAVYYCATLDFGALDYWGQGTLVTVSS VL: EIVLTQSPGTLSLSPGERATLSCRASQAVDSSDLAWYQQKPGQAPRLLIYDAYTRPSGIPDRFSGSGSGTDFTLTISRLEPEDFAVYYCQQYGSSPLTFGGGTKLEIK
38	0.0055	140000	2.1	P15F7 (IgG format) (antibody, V domains shown, IgG format, captured by anti-human Fc) VH: EVQLLESGGGLVQPGGSLRLSCAASGFTFNNYAMNWVRQAPGKGLEWVSVISGSGGTTYYADSVKGRFTISRDNSKNTLYLQMNSLRAEDTAVYYCASGIWDLRYWGQGTLVTVSS VL: DIQMTQSPSSLSASVGDRVTITCRASQSISTYLNWYQQKPGKAPKLLIYAASNLQSGVPSRFSGSGSGTDFTLTISSLQPEDFATYYCQQSYSIPLTFGQGTKVEIK
8	0.0011	140000	10.7	P14G2 (IgG format) (antibody, V domains shown, IgG format, captured by anti-human Fc) VH: EVQLLESGGGLVQPGGSLRLSCAASGFTFSNYVMNWVRQAPGKGLEWVSAISGSGATTYYADSVKGRFTISRDNSKNTLYLQMNSLRAEDTAVYYCVSGLWAGGIWGQGTLVTVSS VL: DIQMTQSPSSLSASVGDRVTITCRASQSISSYLNWYQQKPGKAPKLLIYDASDLQRGVPSRFSGSGSGTDFTLTISSLQPEDFATYYCQQSYNTPWTFGQGTKVEIK
64	0.006	95000	1.9	P3A1 (IgG format) (antibody, V domains shown, IgG format, captured by anti-human Fc) VH: QVQLVQSGAEVKKPGSSVKVSCKASGGTFSSYDISWVRQAPGQGLEWMGGIIPVSGRANYAQKFQGRVTITTDKSTSTAYMELSSLRSEDTAVYYCARVRPTYWPLDYWGQGTLVTVSS VL: not shown
127	0.023	180000	0.5	P9F1 (IgG format) (antibody, V domains shown, IgG format, captured by anti-human Fc) VH: EVQLLESGGGLVQPGGSLRLSCAASGFIFSSFAMSWVRQAPGKGLEWVSDISGSGASTYYADSVKGRFTISRDNSKNTLYLQMNSLRAEDTAVYYCASASGGSGSYWPYMDPWGQGTLVTVSS VL: QSVLTQPPSASGTPGQRVTISCSGSGSNIGSNYVYWYQQLPGTAPKLLIYRNNQRPSGVPDRFSGSKSGTSASLAISGLRSEDEADYYCAAWDGSLSRPVFGTGTKLTVL
0.24	0.000152	636000	76	P5F7 (IgG format) (antibody, V domains shown, IgG format, captured by anti-human Fc; the VLs differ at the N-terminus; the first entry is used) VH: EVQLLESGGGLVQPGGSLRLSCAASGFTFSSYAMNWVRQAPGKGLEWVSSISGGGRSTYYADSVKGRFTISRDNSKNTLYLQMNSLRAEDTAVYYCARDLSPSDVGWGYGFDIWGQGTLVTVSS VL: EIVLTQSPATLSLSPGERATLSCRASQSVSSNLAWYQQKPGQAPRLLIYDTFTRATGIPARFSGSGSGTDFTLTISRLEPEDFAVYYCQQYGSSPPTFGQGTRLEIK
233	0.0144	61800	1	P4H11 (IgG format) (antibody, V domains shown, IgG format, captured by anti-human Fc) VH: EVQLLESGGGLVQPGGSLRLSCAASGFTFSSYAMNWVRQAPGKGLEWVSSISGGGRSTYYADSVKGRFTISRDNSKNTLYLQMNSLRAEDTAVYYCARDLSPSDVGWGYGFDIWGQGTLVTVSS VL: EIVLTQSPGTLSLSPGERATLSCRASQSVSNTYLAWYQQKPGQAPRLLIYDTSSRATGIPDRFSGSGSGTDFTLTISRLEPEDFAVYYCQQYGSSLTFGQGTKVEIK
